Laboratory results from US20210301005A1 (Genentech, published 2021).
Read-outs that look alike come from different tables or passages of the source.

Assays:
[1] = molecular target: T1, human TGFβ2, mature receptor-binding domain (human, UniProt P09858 303-414 (pig entry), The mature TGFβ2 is a disulfide-linked homodimer of this 112-residue chain. The 4A11 epitope spans both monomers (p-1207).); experiment: BIAcore T200
T1 construct: Peprotech; also called TGFb2
T1 sequence: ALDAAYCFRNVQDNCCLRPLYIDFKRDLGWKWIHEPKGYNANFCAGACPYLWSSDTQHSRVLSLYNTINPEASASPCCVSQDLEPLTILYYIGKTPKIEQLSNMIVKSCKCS
Description: (§1) For binding affinity determinations of all humanized 2A10 antibodies, Surface Plasmon Resonance (SPR) measurement with a BIAcore™-T200 instrument was used. Briefly, series S CM5 biosensor chip with protein A was first applied to capture each humanized 2A10 variant to achieve approximately 100 response units (RU) on each flow cell, following by injection of 3-fold serial dilutions of human TGFβ1, TGFβ2 or TGFβ3 (0.02 nM to 5 nM) in HBS-EP buffer (0.01M HEPES pH 7.4, 0.15M NaCl, 3 mM EDTA and 0.05% v/v surfactant P20) at 25° C. with a flow rate of 50 μl/min for kinetics measurement. Association rates (ko.) and dissociation rates (koff) were calculated using a simple one-to-one Langmuir binding model (BIAcore T200 evaluation software version 2.0) to determine the equilibrium dissociation constant (KD), which was calculated as the ratio koff/kₒₙ.

[2] = molecular target: T2, human TGFβ3, mature dimeric form (human, UniProt P10600 301-412); experiment: BIAcore T200
T2 construct: Peprotech, expressed in E. coli; also called TGFb3
T2 sequence: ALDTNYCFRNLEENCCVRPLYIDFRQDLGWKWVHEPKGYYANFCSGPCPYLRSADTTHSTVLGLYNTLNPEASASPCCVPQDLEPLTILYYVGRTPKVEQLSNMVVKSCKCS
Description: as §1

[3] = molecular target: T3, human TGFβ1, mature receptor-binding domain (human, UniProt P01137 279-390); experiment: BIAcore T200
T3 construct: Peprotech; also called TGFb1
T3 sequence (P01137 279-390 limits assumed): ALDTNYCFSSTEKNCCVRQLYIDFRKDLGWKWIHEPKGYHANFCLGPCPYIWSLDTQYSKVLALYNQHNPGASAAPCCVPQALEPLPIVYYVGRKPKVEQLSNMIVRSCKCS
Description: as §1

[4] = molecular target: T1, human TGFβ2, mature receptor-binding …; experiment: BIAcore T200; remark: listed apart in the source
Description: as §1

[5] = molecular target: T2, human TGFβ3, mature dimeric form; experiment: BIAcore T200; remark: listed apart in the source
Description: as §1

[6] = molecular target: T3, human TGFβ1, mature receptor-binding …; experiment: cell-based or functional assay
[7] = molecular target: T1, human TGFβ2, mature receptor-binding …; experiment: cell-based or functional assay
[8] = molecular target: T2, human TGFβ3, mature dimeric form; experiment: cell-based or functional assay
[9] = molecular target: T3, human TGFβ1, mature receptor-binding …; experiment: cell-based or functional assay; remark: listed apart in the source
[10] = molecular target: T1, human TGFβ2, mature receptor-binding …; experiment: cell-based or functional assay; remark: listed apart in the source
[11] = molecular target: T2, human TGFβ3, mature dimeric form; experiment: cell-based or functional assay; remark: listed apart in the source
[12] = molecular target: T1, human TGFβ2, mature receptor-binding …; experiment: SPR
[13] = molecular target: T1, human TGFβ2, mature receptor-binding …; experiment: SPR; remark: listed apart in the source
[14] = molecular target: T1, human TGFβ2, mature receptor-binding …; experiment: BIAcore T200; remark: listed apart in the source
[15] = molecular target: T1, human TGFβ2, mature receptor-binding …; experiment: cell-based or functional assay; remark: listed apart in the source
[16] = molecular target: T1, human TGFβ2, mature receptor-binding …; experiment: Biacore SPR
[17] = molecular target: T4, mouse TGFβ2, mature peptide (mouse, UniProt P27090 303-414); experiment: Biacore SPR
T4 construct: mature
T4 sequence (looked up): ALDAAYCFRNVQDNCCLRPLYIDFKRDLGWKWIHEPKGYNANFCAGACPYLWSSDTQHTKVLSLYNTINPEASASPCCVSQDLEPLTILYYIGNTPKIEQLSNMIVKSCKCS

[18] = molecular target: T3, human TGFβ1, mature receptor-binding …; experiment: cell-based or functional assay; remark: listed apart in the source
[19] = molecular target: T1, human TGFβ2, mature receptor-binding …; experiment: cell-based or functional assay; remark: listed apart in the source
[20] = molecular target: T2, human TGFβ3, mature dimeric form; experiment: cell-based or functional assay; remark: listed apart in the source
[21] = molecular target: T3, human TGFβ1, mature receptor-binding …; experiment: cell-based or functional assay; remark: listed apart in the source
[22] = molecular target: T1, human TGFβ2, mature receptor-binding …; experiment: cell-based or functional assay; remark: listed apart in the source
[23] = molecular target: T2, human TGFβ3, mature dimeric form; experiment: cell-based or functional assay; remark: listed apart in the source
[24] = molecular target: T3, human TGFβ1, mature receptor-binding …; experiment: cell-based or functional assay; remark: listed apart in the source
[25] = molecular target: T1, human TGFβ2, mature receptor-binding …; experiment: cell-based or functional assay; remark: listed apart in the source
[26] = molecular target: T2, human TGFβ3, mature dimeric form; experiment: cell-based or functional assay; remark: listed apart in the source
[27] = molecular target: T1, human TGFβ2, mature receptor-binding …; experiment: cell-based or functional assay; remark: listed apart in the source
[28] = molecular target: T4, mouse TGFβ2, mature peptide; experiment: cell-based or functional assay
[29] = molecular target: T2, human TGFβ3, mature dimeric form; experiment: SPR
[30] = molecular target: T2, human TGFβ3, mature dimeric form; experiment: SPR; remark: listed apart in the source
[31] = molecular target: T1, human TGFβ2, mature receptor-binding …; experiment: BIAcore T200; remark: listed apart in the source
Description: as §1

[32] = molecular target: T2, human TGFβ3, mature dimeric form; experiment: BIAcore T200; remark: listed apart in the source
Description: as §1

[33] = molecular target: T2, human TGFβ3, mature dimeric form; experiment: cell-based or functional assay; remark: listed apart in the source
[34] = molecular target: T3, human TGFβ1, mature receptor-binding …; experiment: cell-based or functional assay; remark: listed apart in the source
[35] = molecular target: T1, human TGFβ2, mature receptor-binding …; experiment: cell-based or functional assay; remark: listed apart in the source
[36] = molecular target: T2, human TGFβ3, mature dimeric form; experiment: cell-based or functional assay; remark: listed apart in the source
[37] = molecular target: T3, human TGFβ1, mature receptor-binding …; experiment: BIAcore T200; humanization BIAcore study (Tables 9 and 11), bound only
[38] = molecular target: T3, human TGFβ1, mature receptor-binding …; experiment: SPR; Table 4 screening SPR, affinity at 25 C; no blocking of TGFb1 (>500 nM at 37 C)

B1: h2A10.v2 (antibody, human IgG1, kappa, N297G)
heavy: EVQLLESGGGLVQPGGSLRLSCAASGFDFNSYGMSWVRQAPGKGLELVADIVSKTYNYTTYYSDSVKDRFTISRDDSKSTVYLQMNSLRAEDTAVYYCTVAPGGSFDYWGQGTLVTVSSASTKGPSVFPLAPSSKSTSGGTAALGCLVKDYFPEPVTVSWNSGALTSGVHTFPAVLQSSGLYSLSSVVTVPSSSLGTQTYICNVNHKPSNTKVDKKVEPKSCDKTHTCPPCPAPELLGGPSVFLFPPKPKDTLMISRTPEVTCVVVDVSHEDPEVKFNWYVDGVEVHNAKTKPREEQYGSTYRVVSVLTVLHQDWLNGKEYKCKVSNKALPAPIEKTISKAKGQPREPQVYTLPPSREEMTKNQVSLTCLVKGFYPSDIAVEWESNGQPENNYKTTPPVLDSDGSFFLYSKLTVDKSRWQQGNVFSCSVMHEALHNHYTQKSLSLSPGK
light: DIQLTQSPSSLSASVGDRVTITCRASQSVSISRFNLMHWYQHKPGKQPKLLIYRASNLASGIPSRFSGSGSGTDFTLTISSLQPEDFATYYCQHSRESPWTFGGGTKVEIKRTVAAPSVFIFPPSDEQLKSGTASVVCLLNNFYPREAKVQWKVDNALQSGNSQESVTEQDSKDSTYSLSSTLTLSKADYEKHKVYACEVTHQGLSSPVTKSFNRGEC
notes: also called humanized 2A10 version 2
Kd [1]: 0.314 nM
Kd [2]: 0.0013 nM
Kd [3]: > 5 nM
Kd [4]: 0.314 nM
Kd [5]: 0.0013 nM
HEKBlue TGFβ blocking IC50 [6]: > 200 nM
HEKBlue TGFβ blocking IC50 [7]: > 200 nM
HEKBlue TGFβ blocking IC50 [8]: 0.01 nM
HEKBlue TGFβ blocking IC50 [9]: > 200 nM
HEKBlue TGFβ blocking IC50 [10]: > 200 nM
HEKBlue TGFβ blocking IC50 [11]: 0.01 nM

B2: 6F12 (antibody, V domains shown)
VH: QVQLKESGPGLVQPSQTLSLTCTVSGFSLTTYNVHWVRQPPGKGLEWMGLIWNTGGTRYNSALKSRLSISKDTSKSQVFLRMNSLQTEDTATYYCARDPVPNKWHFDFWGPGTMVTVSS
VL: DIQMTQSPASLSASLGETVTIECLASEDIYSNLAWYQQKPGKSPQLLIYDARSLQDGVPSRFSGSESGPQYSLEINSLQSEDAVTYFCQQHHAYPFTFGSGTKLEIK
notes: anti-TGFβ2; called rat and rabbit in different places; also called rat 6F12; r6F12
Kd [12]: < 0.01 nM
Kd [13]: < 0.001 nM
Kd [14]: ≤ 0.0005 nM
cell-based IC50 [15]: < 0.25 nM
fold potency against 1D11 [15]: ~100 fold
Kd [16]: < 0.001 nM
Kd [17]: < 0.001 nM
Blocking IC50 [18]: > 500 nM
Blocking IC50 [19]: 0.04 nM
Blocking IC50 [20]: > 500 nM
HEKBlue TGFβ blocking IC50 [21]: > 200 nM
HEKBlue TGFβ blocking IC50 [22]: 0.004 nM
HEKBlue TGFβ blocking IC50 [23]: > 200 nM
HEKBlue TGFβ blocking IC50 [24]: > 200 nM
HEKBlue TGFβ blocking IC50 [25]: 0.004 nM
HEKBlue TGFβ blocking IC50 [26]: > 200 nM
IC50 (read off the curve) [27]: ~0.03 nM
IC50 (read off the curve) [28]: ~0.06 nM

B3: 2A10 (antibody, V domains shown)
VH: EVQLVESGGGLVQPKGSLKLSCAASGFDFNSYGMSWVRQAPGKGLDLVADIVSKTYNYTTYYSDSVKDRFTISRDDSQSMVYLQMDNLKTEDTALYYCTVAPGGSFDYWGQGVMVTVSS
VL: DIVLTQSPALAVSLGQRATISCRASQSVSISRFNLMHWYQHKPGQQPKLLIYRASNLASGIPARFSGSGSGTDFTLTINPVQADDLATYYCQHSRESPWTFGGGTKLEIK
notes: anti-TGFβ3; also called rat 2A10; r2A10
Kd [29]: < 0.01 nM
Kd [13]: 0.046 nM
Kd [30]: < 0.002 nM
Kd [1]: 0.0628 nM
Kd [2]: 0.0012 nM
Kd [31]: 0.0628 nM
Kd [32]: 0.0012 nM
cell-based IC50 [33]: < 0.25 nM
Blocking IC50 [18]: > 500 nM
Blocking IC50 [19]: 193 nM
Blocking IC50 [20]: 0.02 nM
HEKBlue TGFβ blocking IC50 [6]: > 200 nM
HEKBlue TGFβ blocking IC50 [7]: 70 nM
HEKBlue TGFβ blocking IC50 [8]: 0.01 nM
HEKBlue TGFβ blocking IC50 [34]: > 200 nM
HEKBlue TGFβ blocking IC50 [35]: 70 nM
HEKBlue TGFβ blocking IC50 [36]: 0.01 nM
Kd [37]: > 5 nM
Kd [38]: 1.6 nM
